From article PMC10397247
Values belong to the binder of their own block, whether it stands above or below them.

What was measured:
P8A-bS = target: T1, P8A-bS; test: two-hybrid library CCNG1;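 note: natural log of median RNA to DNA barcode read ratio; higher means stronger binding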
T1 chain: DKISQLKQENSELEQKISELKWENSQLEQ

P7A-bS = target: T2, P7A-bS; test: two-hybrid library CCNG1;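 note: natural log of median RNA to DNA barcode read ratio; higher means stronger binding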
T2 chain: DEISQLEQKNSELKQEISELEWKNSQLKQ

P12A-bS = target: T3, P12A-bS; test: two-hybrid library CCNG1;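 note: natural log of median RNA to DNA barcode read ratio; higher means stronger binding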
T3 chain: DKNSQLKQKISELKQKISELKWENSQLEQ

P11A-bS = target: T4, P11A-bS; test: two-hybrid library CCNG1;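 note: natural log of median RNA to DNA barcode read ratio; higher means stronger binding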
T4 chain: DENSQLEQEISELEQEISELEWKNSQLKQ

P6A-bS = target: T5, P6A-bS; test: two-hybrid library CCNG1;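 note: natural log of median RNA to DNA barcode read ratio; higher means stronger binding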
T5 chain: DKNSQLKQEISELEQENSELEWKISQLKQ

P3A-bS = target: T6, P3A-bS; test: two-hybrid library CCNG1;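 note: natural log of median RNA to DNA barcode read ratio; higher means stronger binding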
T6 chain: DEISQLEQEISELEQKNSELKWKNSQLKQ

P2A-bS = target: T7, P2A-bS; test: two-hybrid library CCNG1
T7 chain: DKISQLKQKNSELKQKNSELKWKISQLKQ

P9A-bS = target: T8, P9A-bS; test: two-hybrid library CCNG1
T8 chain: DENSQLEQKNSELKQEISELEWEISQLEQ

P4A-bS = target: T9, P4A-bS; test: two-hybrid library CCNG1
T9 chain: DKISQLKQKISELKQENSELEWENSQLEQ

P5A-bS = target: T10, P5A-bS; test: two-hybrid library CCNG1
T10 chain: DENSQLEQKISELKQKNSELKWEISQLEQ

P1A-bS = target: T11, P1A-bS; test: two-hybrid library CCNG1
T11 chain: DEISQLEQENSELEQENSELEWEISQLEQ

4H2330-AA = target: T12, 4H2330-AA; test: two-hybrid library CCmax; conditions: mean of both orientations
T12 chain: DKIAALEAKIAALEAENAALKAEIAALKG

4H_GCN4 = test: two-hybrid library CCmax
4H175-AA = target: T13, 4H175-AA; test: two-hybrid library CCmax; conditions: mean of both orientations
T13 chain: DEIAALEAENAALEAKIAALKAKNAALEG

4H1650-AA = target: T14, 4H1650-AA; test: two-hybrid library CCmax
T14 chain: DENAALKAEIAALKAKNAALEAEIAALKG

4H2931-AA = target: T15, 4H2931-AA; test: two-hybrid library CCmax; conditions: mean of both orientations
T15 chain: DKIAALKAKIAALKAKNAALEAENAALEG

4H2466-AA = target: T16, 4H2466-AA; test: two-hybrid library CCmax; conditions: mean of both orientations
T16 chain: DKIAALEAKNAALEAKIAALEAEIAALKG

4H3073-AA = target: T17, 4H3073-AA; test: two-hybrid library CCmax; conditions: mean of both orientations
T17 chain: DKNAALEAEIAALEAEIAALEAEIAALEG

4H2253-AA = target: T18, 4H2253-AA; test: two-hybrid library CCmax; conditions: mean of both orientations
T18 chain: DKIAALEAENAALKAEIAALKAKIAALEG

4H2732-AA = target: T19, 4H2732-AA; test: two-hybrid library CCmax; conditions: mean of both orientations
T19 chain: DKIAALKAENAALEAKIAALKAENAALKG

4H3438-AA = target: T20, 4H3438-AA; test: two-hybrid library CCmax
T20 chain: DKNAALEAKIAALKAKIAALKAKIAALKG

4H2774-AA = target: T21, 4H2774-AA; test: two-hybrid library CCmax; conditions: mean of both orientations
T21 chain: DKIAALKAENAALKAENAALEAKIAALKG

4H_BCR = target: T22, 4H_BCR; test: two-hybrid library CCmax; conditions: mean of both orientations
T22 chain: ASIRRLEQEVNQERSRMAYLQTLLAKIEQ

4H347-AA = target: T23, 4H347-AA; test: two-hybrid library CCmax; conditions: mean of both orientations
T23 chain: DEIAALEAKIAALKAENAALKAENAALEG

GCN2_T = test: two-hybrid library CCmax
4H1930-AA = target: T24, 4H1930-AA; test: two-hybrid library CCmax; conditions: mean of both orientations
T24 chain: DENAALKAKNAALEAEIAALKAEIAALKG

4H1828-AA = target: T25, 4H1828-AA; test: two-hybrid library CCmax; conditions: mean of both orientations
T25 chain: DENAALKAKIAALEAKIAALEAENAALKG

4H_APH = target: T26, 4H_APH; test: two-hybrid library CCmax; conditions: mean of both orientations
T26 chain: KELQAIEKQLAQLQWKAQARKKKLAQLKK

4H2165-AA = target: T27, 4H2165-AA; test: two-hybrid library CCmax; conditions: mean of both orientations
T27 chain: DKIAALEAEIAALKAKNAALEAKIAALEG

4H1765-AA = target: T28, 4H1765-AA; test: two-hybrid library CCmax; conditions: mean of both orientations
T28 chain: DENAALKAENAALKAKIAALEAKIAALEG

4H3001-AA = target: T29, 4H3001-AA; test: two-hybrid library CCmax; conditions: mean of both orientations
T29 chain: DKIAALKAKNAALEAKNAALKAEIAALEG

4H249-AA = target: T30, 4H249-AA; test: two-hybrid library CCmax; conditions: mean of both orientations
T30 chain: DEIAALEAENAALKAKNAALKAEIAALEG

4H2343-AA = target: T31, 4H2343-AA; test: two-hybrid library CCmax; conditions: mean of both orientations
T31 chain: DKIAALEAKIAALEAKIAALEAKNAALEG

4H3015-AA = target: T32, 4H3015-AA; test: two-hybrid library CCmax; conditions: mean of both orientations
T32 chain: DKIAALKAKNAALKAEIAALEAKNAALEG

4H406-AA = target: T33, 4H406-AA; test: two-hybrid library CCmax; conditions: mean of both orientations
T33 chain: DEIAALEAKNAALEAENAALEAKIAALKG

4H2592-AA = target: T34, 4H2592-AA; test: two-hybrid library CCmax; conditions: mean of both orientations
T34 chain: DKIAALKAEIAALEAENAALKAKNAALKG

4H1821-AA = target: T35, 4H1821-AA; test: two-hybrid library CCmax
T35 chain: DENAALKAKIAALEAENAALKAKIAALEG

4H56-AA = target: T36, 4H56-AA; test: two-hybrid library CCmax; conditions: mean of both orientations
T36 chain: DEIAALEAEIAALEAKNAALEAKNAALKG

4H2124-AA = target: T37, 4H2124-AA; test: two-hybrid library CCmax; conditions: mean of both orientations
T37 chain: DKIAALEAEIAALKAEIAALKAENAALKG

4H452-AA = target: T38, 4H452-AA; test: two-hybrid library CCmax; conditions: mean of both orientations
T38 chain: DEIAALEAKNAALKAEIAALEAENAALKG

4H3172-bN = target: T39, 4H3172-bN; test: two-hybrid library CCNG1
T39 chain: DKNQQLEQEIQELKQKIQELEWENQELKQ

4H3974-bN = target: T40, 4H3974-bN; test: two-hybrid library CCNG1
T40 chain: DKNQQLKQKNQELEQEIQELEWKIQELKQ

4H1629-bN = target: T41, 4H1629-bN; test: two-hybrid library CCNG1
T41 chain: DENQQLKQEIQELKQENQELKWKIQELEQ

4H1359-bN = target: T42, 4H1359-bN; test: two-hybrid library CCNG1
T42 chain: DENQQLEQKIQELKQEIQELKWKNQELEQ

4H3638-bN = target: T43, 4H3638-bN; test: two-hybrid library CCNG1
T43 chain: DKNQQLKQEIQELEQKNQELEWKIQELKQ

4H1710-bN = target: T44, 4H1710-bN; test: two-hybrid library CCNG1
T44 chain: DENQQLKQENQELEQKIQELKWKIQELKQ

4H619-bN = target: T45, 4H619-bN; test: two-hybrid library CCNG1
T45 chain: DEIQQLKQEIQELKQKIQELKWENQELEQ

4H1393-bN = target: T46, 4H1393-bN; test: two-hybrid library CCNG1
T46 chain: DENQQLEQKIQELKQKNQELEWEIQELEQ

4H1449-bN = target: T47, 4H1449-bN; test: two-hybrid library CCNG1
T47 chain: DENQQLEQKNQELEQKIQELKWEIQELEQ

4H1804-bN = target: T48, 4H1804-bN; test: two-hybrid library CCNG1
T48 chain: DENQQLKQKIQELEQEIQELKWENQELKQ

4H584-bN = target: T49, 4H584-bN; test: two-hybrid library CCNG1
T49 chain: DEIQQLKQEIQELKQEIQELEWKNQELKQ

4H570-bN = target: T50, 4H570-bN; test: two-hybrid library CCNG1
T50 chain: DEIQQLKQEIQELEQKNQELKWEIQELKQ

4H850-bN = target: T51, 4H850-bN; test: two-hybrid library CCNG1
T51 chain: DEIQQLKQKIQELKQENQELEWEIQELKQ

4H3414-bN = target: T52, 4H3414-bN; test: two-hybrid library CCNG1
T52 chain: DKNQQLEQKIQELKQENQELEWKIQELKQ

4H906-bN = target: T53, 4H906-bN; test: two-hybrid library CCNG1
T53 chain: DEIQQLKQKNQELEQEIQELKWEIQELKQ

4H3631-bN = target: T54, 4H3631-bN; test: two-hybrid library CCNG1
T54 chain: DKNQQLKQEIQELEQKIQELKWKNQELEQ

4H3129-bN = target: T55, 4H3129-bN; test: two-hybrid library CCNG1
T55 chain: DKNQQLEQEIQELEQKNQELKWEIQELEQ

4H1985-bN = target: T56, 4H1985-bN; test: two-hybrid library CCNG1
T56 chain: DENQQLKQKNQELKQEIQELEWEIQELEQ

4H56-bN = target: T57, 4H56-bN; test: two-hybrid library CCNG1
T57 chain: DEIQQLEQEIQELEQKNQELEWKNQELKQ

4H3817-bN = target: T58, 4H3817-bN; test: two-hybrid library CCNG1
T58 chain: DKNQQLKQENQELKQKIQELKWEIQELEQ

Sequence of 4H_GCN4 (chain, as listed by the source): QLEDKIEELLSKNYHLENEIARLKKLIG

interaction score (P8A-bS): 0.714 | interaction score (P7A-bS): -1.25 | interaction score (P12A-bS): 2.41 | interaction score (P11A-bS): -0.865 | interaction score (P6A-bS): 0.727 | interaction score (P3A-bS): -0.458 | interaction score (P2A-bS): -0.288 | interaction score (P9A-bS): -0.134 | interaction score (P4A-bS): 0.142 | interaction score (P5A-bS): -0.458 | interaction score (P1A-bS): 0.728
Binder: DENSQLEQEISELEQEISELEWKNSQLKQ [P11A-bS]

interaction score (P8A-bS): -0.395 | interaction score (P7A-bS): -0.464 | interaction score (P12A-bS): -0.0445 | interaction score (P11A-bS): -0.138 | interaction score (P6A-bS): -1.53 | interaction score (P3A-bS): -0.693 | interaction score (P2A-bS): -0.0157 | interaction score (P4A-bS): -0.106 | interaction score (P5A-bS): -1.76 | interaction score (P1A-bS): -2.5
Binder: DKNSQLKQENSELEQKISELKWKISQLKQ [P10A-bS]

interaction score (P8A-bS): -1.07 | interaction score (P7A-bS): -0.873 | interaction score (P12A-bS): -1.48 | interaction score (P6A-bS): -0.87 | interaction score (P3A-bS): -2.43 | interaction score (P2A-bS): -1.69 | interaction score (P9A-bS): -0.676 | interaction score (P4A-bS): -1.12 | interaction score (P5A-bS): -2.21 | interaction score (P1A-bS): -0.648
Binder: DKNSQLKQKISELKQKISELKWENSQLEQ [P12A-bS]

interaction score (4H2330-AA): -1.54 | interaction score (4H_GCN4): -1.9 | interaction score (4H175-AA): -1.43 | interaction score (4H1650-AA): 1.93 | interaction score (4H2931-AA): -1.59 | interaction score (4H2466-AA): -1.67 | interaction score (4H3073-AA): -1.16 | interaction score (4H2253-AA): -1.47 | interaction score (4H2732-AA): -0.897 | interaction score (4H3438-AA): -1.13 | interaction score (4H2774-AA): -1.48 | interaction score (4H_BCR): -1.36 | interaction score (4H347-AA): -2.36 | interaction score (GCN2_T): -0.999 | interaction score (4H1930-AA): -1.42 | interaction score (4H1828-AA): -1.48 | interaction score (4H_APH): -1.42 | interaction score (4H2165-AA): -1.3 | interaction score (4H1765-AA): -1.53 | interaction score (4H3001-AA): -1.67 | interaction score (4H249-AA): -1.71 | interaction score (4H2343-AA): -1.44 | interaction score (4H3015-AA): -1.53 | interaction score (4H406-AA): -1.61 | interaction score (4H2592-AA): -1.61 | interaction score (4H1821-AA): -1.25 | interaction score (4H56-AA): -1.74 | interaction score (4H2124-AA): -1.42 | interaction score (4H452-AA): -1.34
Binder: DENAALKAEIAALKAKNAALEAEIAALKG [4H1650-AA]

interaction score (4H3172-bN): 0.294 | interaction score (4H3974-bN): 1.47 | interaction score (4H1629-bN): -1.24 | interaction score (4H1359-bN): -0.688 | interaction score (4H3638-bN): -1.64 | interaction score (4H1710-bN): -0.607 | interaction score (4H619-bN): -1.38 | interaction score (4H1393-bN): -0.209 | interaction score (4H1449-bN): -0.317 | interaction score (4H1804-bN): 0.796 | interaction score (4H584-bN): -0.701 | interaction score (4H570-bN): -0.803 | interaction score (4H850-bN): -0.294 | interaction score (4H3414-bN): -0.131 | interaction score (4H906-bN): -1.22 | interaction score (4H3631-bN): 0.911 | interaction score (4H3129-bN): -0.57 | interaction score (4H1985-bN): -0.294 | interaction score (4H56-bN): -1.25 | interaction score (4H3817-bN): -1.14
Binder: DENQQLEQKIQELKQEIQELKWKNQELEQ [4H1359-bN]
